Source: patent US20130142788A1 (published 2013)

T1: recombinant mature dimeric myostatin (human and mouse (mature sequences 100% …, UniProt O08689 268-376))
T1 construct: also called GDF-8; mature myostatin
T1 sequence: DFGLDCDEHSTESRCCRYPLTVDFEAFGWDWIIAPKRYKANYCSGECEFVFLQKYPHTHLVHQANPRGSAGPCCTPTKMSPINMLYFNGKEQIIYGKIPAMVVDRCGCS


Columns and labels:
[1] = biological target: T1, recombinant mature dimeric myostatin; test: ActRIIb neutralisation ELISA: inhibition of 2 nM biotinylated myostatin binding to coated ActRIIb
Method: Recombinant soluble ActRIIb (R&D Systems 339-RBB) was coated in wells of an ELISA plate at 1 μg/ml in carbonate buffer overnight at 4° C. Plates were blocked with PBS containing 0.1% tween 20 and 0.1% BSA and washed following standard ELISA protocols. In parallel, 2 nM biotinylated myostatin (in-house reagent, described above) was pre-incubated with a dilution series of the antibodies of Tables 21 and 22 for 30 minutes at 37° C. The biotinylated myostatin:antibody reactions were then added (50 μl/well) to the ActRIIb coated plate for 1 hour at 37° C. Standard wash procedures were followed prior to addition of 50 μl per well of a 1:200 diluted streptavidin-HRP conjugate (R&D Systems. #890803) followed by a further 37° C. incubation for 1 hour. Plates were again washed and assayed at absorbance 490 nm following substrate (R&D Systems, #DY999) and acid stop solution treatment.

[2] = biological target: T1, recombinant mature dimeric myostatin; test: cell-based or functional assay

| Binder | IC50 [1] | IC50, myostatin responsive reporter gene neutralisation assay (A204) [2] |
| --- | --- | --- |
| H3L4 (antibody, IgG1, V domains shown, Humanised IgG1/kappa) VH: QVQLVQSGAEVKKPGASVKVSCKASGYSFTGYFMHWVRQAPGQGLEWIGNIYPYNGVSNYNQRFKARATLTTDTSTSTAYMELRSLRSDDTAVYYCARRYYYGTGPADWYYDVWGQGTLVTVSS VL: DIQMTQSPSSLSASVGDRVTITCKASQDINSYLSWFQQKPGKAPKSLIYRANRLVDGVPSKFSGSGSGQDYTLTISSLQPEDFATYYCLQSDEFPLTFGQGTKLEIKR | 1310 pM |  |
| H3L6 (antibody, IgG1, V domains shown, Humanised IgG1/kappa) VH: QVQLVQSGAEVKKPGASVKVSCKASGYSFTGYFMHWVRQAPGQGLEWIGNIYPYNGVSNYNQRFKARATLTTDTSTSTAYMELRSLRSDDTAVYYCARRYYYGTGPADWYYDVWGQGTLVTVSS VL: DIQMTQSPSSLSASVGDRVTITCKASQDINSYLSWFQQKPGKAPKTLIYRANRLVDGVPSKFSGSGSGQDYTLTISSLQPEDFATYYCLQSDEFPLTFGQGTKLEIKR | 3040 pM |  |
| H4L6 (antibody, IgG1, V domains shown, Humanised IgG1/kappa) VH: QVQLVQSGAEVKKPGASVKVSCKASGYSFTGYFMHWVRQAPGQGLEWMGNIYPYNGVSNYNQRFKARVTMTVDKSTSTAYMELRSLRSDDTAVYYCARRYYYGTGPADWYYDVWGQGTLVTVSS VL: DIQMTQSPSSLSASVGDRVTITCKASQDINSYLSWFQQKPGKAPKTLIYRANRLVDGVPSKFSGSGSGQDYTLTISSLQPEDFATYYCLQSDEFPLTFGQGTKLEIKR | 273 pM | 6900 pM |
| H4L5 (antibody, IgG1, V domains shown, Humanised IgG1/kappa) VH: QVQLVQSGAEVKKPGASVKVSCKASGYSFTGYFMHWVRQAPGQGLEWMGNIYPYNGVSNYNQRFKARVTMTVDKSTSTAYMELRSLRSDDTAVYYCARRYYYGTGPADWYYDVWGQGTLVTVSS VL: DIQMTQSPSSLSASVGDRVTITCKASQDINSYLSWFQQKPGKAPKTLIYRANRLVDGVPSKFSGSGSGTDYTLTISSLQPEDFATYYCLQSDEFPLTFGQGTKLEIKR | 336 pM | 6500 pM |
| H3L5 (antibody, IgG1, V domains shown, Humanised IgG1/kappa) VH: QVQLVQSGAEVKKPGASVKVSCKASGYSFTGYFMHWVRQAPGQGLEWIGNIYPYNGVSNYNQRFKARATLTTDTSTSTAYMELRSLRSDDTAVYYCARRYYYGTGPADWYYDVWGQGTLVTVSS VL: DIQMTQSPSSLSASVGDRVTITCKASQDINSYLSWFQQKPGKAPKTLIYRANRLVDGVPSKFSGSGSGTDYTLTISSLQPEDFATYYCLQSDEFPLTFGQGTKLEIKR | 1080 pM |  |
| H6L6 (antibody, IgG1, V domains shown, Humanised IgG1/kappa) VH: QVQLVQSGAEVKKPGASVKISCKASGYSFTGYFMHWVRQAPGQGLEWIGNIYPYNGVSNYNQRFKAKATLTVDKSTSTAYMELRSLRSDDTAVYYCARRYYYGTGPADWYYDVWGQGTLVTVSS VL: DIQMTQSPSSLSASVGDRVTITCKASQDINSYLSWFQQKPGKAPKTLIYRANRLVDGVPSKFSGSGSGQDYTLTISSLQPEDFATYYCLQSDEFPLTFGQGTKLEIKR | 320 pM |  |
| H6L5 (antibody, IgG1, V domains shown) VH: QVQLVQSGAEVKKPGASVKISCKASGYSFTGYFMHWVRQAPGQGLEWIGNIYPYNGVSNYNQRFKAKATLTVDKSTSTAYMELRSLRSDDTAVYYCARRYYYGTGPADWYYDVWGQGTLVTVSS VL: DIQMTQSPSSLSASVGDRVTITCKASQDINSYLSWFQQKPGKAPKTLIYRANRLVDGVPSKFSGSGSGTDYTLTISSLQPEDFATYYCLQSDEFPLTFGQGTKLEIKR |  | 6000 pM |
| H5L4 (antibody, IgG1, V domains shown, Humanised IgG1/kappa) VH: QVQLVQSGAEVKKPGASVKVSCKASGYSFTGYFMHWVRQAPGQGLEWIGNIYPYNGVSNYNQRFKARATLTVDKSTSTAYMELRSLRSDDTAVYYCARRYYYGTGPADWYYDVWGQGTLVTVSS VL: DIQMTQSPSSLSASVGDRVTITCKASQDINSYLSWFQQKPGKAPKSLIYRANRLVDGVPSKFSGSGSGQDYTLTISSLQPEDFATYYCLQSDEFPLTFGQGTKLEIKR | 211 pM |  |
| H6L4 (antibody, IgG1, V domains shown, Humanised IgG1/kappa) VH: QVQLVQSGAEVKKPGASVKISCKASGYSFTGYFMHWVRQAPGQGLEWIGNIYPYNGVSNYNQRFKAKATLTVDKSTSTAYMELRSLRSDDTAVYYCARRYYYGTGPADWYYDVWGQGTLVTVSS VL: DIQMTQSPSSLSASVGDRVTITCKASQDINSYLSWFQQKPGKAPKSLIYRANRLVDGVPSKFSGSGSGQDYTLTISSLQPEDFATYYCLQSDEFPLTFGQGTKLEIKR | 225 pM |  |
| H4L4 (antibody, IgG1, V domains shown, Humanised IgG1/kappa) VH: QVQLVQSGAEVKKPGASVKVSCKASGYSFTGYFMHWVRQAPGQGLEWMGNIYPYNGVSNYNQRFKARVTMTVDKSTSTAYMELRSLRSDDTAVYYCARRYYYGTGPADWYYDVWGQGTLVTVSS VL: DIQMTQSPSSLSASVGDRVTITCKASQDINSYLSWFQQKPGKAPKSLIYRANRLVDGVPSKFSGSGSGQDYTLTISSLQPEDFATYYCLQSDEFPLTFGQGTKLEIKR | 395 pM | 7900 pM |

The remaining lines, values ahead:

| IC50 [1] | IC50, myostatin responsive reporter gene neutralisation assay (A204) [2] | Binder |
| --- | --- | --- |
| 141 pM |  | H9L4 (antibody, IgG1, V domains shown, Humanised IgG1/kappa) VH: QVQLVQSGAEVKKPGASVKISCKASGYSFTGYFMHWVRQAPGQGLEWIGNIYPYNSVSNYNQRFKAKATLTVDKSTSTAYMELRSLRSDDTAVYYCARRYYYGTGPADWYYDVWGQGTLVTVSS VL: DIQMTQSPSSLSASVGDRVTITCKASQDINSYLSWFQQKPGKAPKSLIYRANRLVDGVPSKFSGSGSGQDYTLTISSLQPEDFATYYCLQSDEFPLTFGQGTKLEIKR |
| 28 pM | 6300 pM | H7L5 (antibody, IgG1, V domains shown, Humanised IgG1/kappa) VH: QVQLVQSGAEVKKPGASVKVSCKASGYSFTGYFMHWVRQAPGQGLEWMGNIYPYNSVSNYNQRFKARVTMTVDKSTSTAYMELRSLRSDDTAVYYCARRYYYGTGPADWYYDVWGQGTLVTVSS VL: DIQMTQSPSSLSASVGDRVTITCKASQDINSYLSWFQQKPGKAPKTLIYRANRLVDGVPSKFSGSGSGTDYTLTISSLQPEDFATYYCLQSDEFPLTFGQGTKLEIKR |
| 79 pM |  | H8L4 (antibody, IgG1, V domains shown, Humanised IgG1/kappa) VH: QVQLVQSGAEVKKPGASVKVSCKASGYSFTGYFMHWVRQAPGQGLEWIGNIYPYNSVSNYNQRFKARATLTVDKSTSTAYMELRSLRSDDTAVYYCARRYYYGTGPADWYYDVWGQGTLVTVSS VL: DIQMTQSPSSLSASVGDRVTITCKASQDINSYLSWFQQKPGKAPKSLIYRANRLVDGVPSKFSGSGSGQDYTLTISSLQPEDFATYYCLQSDEFPLTFGQGTKLEIKR |
| 129 pM |  | H9L6 (antibody, IgG1, V domains shown, Humanised IgG1/kappa) VH: QVQLVQSGAEVKKPGASVKISCKASGYSFTGYFMHWVRQAPGQGLEWIGNIYPYNSVSNYNQRFKAKATLTVDKSTSTAYMELRSLRSDDTAVYYCARRYYYGTGPADWYYDVWGQGTLVTVSS VL: DIQMTQSPSSLSASVGDRVTITCKASQDINSYLSWFQQKPGKAPKTLIYRANRLVDGVPSKFSGSGSGQDYTLTISSLQPEDFATYYCLQSDEFPLTFGQGTKLEIKR |
| 166 pM |  | H5L6 (antibody, IgG1, V domains shown, Humanised IgG1/kappa) VH: QVQLVQSGAEVKKPGASVKVSCKASGYSFTGYFMHWVRQAPGQGLEWIGNIYPYNGVSNYNQRFKARATLTVDKSTSTAYMELRSLRSDDTAVYYCARRYYYGTGPADWYYDVWGQGTLVTVSS VL: DIQMTQSPSSLSASVGDRVTITCKASQDINSYLSWFQQKPGKAPKTLIYRANRLVDGVPSKFSGSGSGQDYTLTISSLQPEDFATYYCLQSDEFPLTFGQGTKLEIKR |
| 38 pM |  | H7L4 (antibody, IgG1, V domains shown, Humanised IgG1/kappa) VH: QVQLVQSGAEVKKPGASVKVSCKASGYSFTGYFMHWVRQAPGQGLEWMGNIYPYNSVSNYNQRFKARVTMTVDKSTSTAYMELRSLRSDDTAVYYCARRYYYGTGPADWYYDVWGQGTLVTVSS VL: DIQMTQSPSSLSASVGDRVTITCKASQDINSYLSWFQQKPGKAPKSLIYRANRLVDGVPSKFSGSGSGQDYTLTISSLQPEDFATYYCLQSDEFPLTFGQGTKLEIKR |
| 149 pM | 6100 pM | H5L5 (antibody, IgG1, V domains shown, Humanised IgG1/kappa) VH: QVQLVQSGAEVKKPGASVKVSCKASGYSFTGYFMHWVRQAPGQGLEWIGNIYPYNGVSNYNQRFKARATLTVDKSTSTAYMELRSLRSDDTAVYYCARRYYYGTGPADWYYDVWGQGTLVTVSS VL: DIQMTQSPSSLSASVGDRVTITCKASQDINSYLSWFQQKPGKAPKTLIYRANRLVDGVPSKFSGSGSGTDYTLTISSLQPEDFATYYCLQSDEFPLTFGQGTKLEIKR |
| 31 pM |  | H7L6 (antibody, IgG1, V domains shown, Humanised IgG1/kappa) VH: QVQLVQSGAEVKKPGASVKVSCKASGYSFTGYFMHWVRQAPGQGLEWMGNIYPYNSVSNYNQRFKARVTMTVDKSTSTAYMELRSLRSDDTAVYYCARRYYYGTGPADWYYDVWGQGTLVTVSS VL: DIQMTQSPSSLSASVGDRVTITCKASQDINSYLSWFQQKPGKAPKTLIYRANRLVDGVPSKFSGSGSGQDYTLTISSLQPEDFATYYCLQSDEFPLTFGQGTKLEIKR |
| 101 pM |  | H8L6 (antibody, IgG1, V domains shown, Humanised IgG1/kappa) VH: QVQLVQSGAEVKKPGASVKVSCKASGYSFTGYFMHWVRQAPGQGLEWIGNIYPYNSVSNYNQRFKARATLTVDKSTSTAYMELRSLRSDDTAVYYCARRYYYGTGPADWYYDVWGQGTLVTVSS VL: DIQMTQSPSSLSASVGDRVTITCKASQDINSYLSWFQQKPGKAPKTLIYRANRLVDGVPSKFSGSGSGQDYTLTISSLQPEDFATYYCLQSDEFPLTFGQGTKLEIKR |
